Experiments:
[1] = system: HPLC-purified bovine NfH (phosphorylated)
[2] = system: dephosphorylated HPLC-purified bovine NfH (treated with alkaline phosphatase)

Substance: enterokinase (EK, EC 3.4.21.9, Roche, Cat No 11 334115001)
- limited proteolysis, cleavage products seen by immunoblot [1]: The described in vivo cleavage products can be reproduced in vitro by incubation of purified NfH with enterokinase (FIG. 2D, lane 4 and FIG. 2E, lane 8)
- limited proteolysis, cleavage products seen by immunoblot [2]: The described in vivo cleavage products can be reproduced in vitro by incubation of purified NfH with enterokinase (FIG. 2D, lane 4 and FIG. 2E, lane 8)
